13 substances from US20100015644A1 can be followed below.

In assay [1] the target is FcγRIIIaECD176VHis batch 646-005-EP (CHO-K1SV derived) (human) (UniProt P08637). Nature of the assay: ELISA; FcγRIIIa176V directly coated or captured by anti-polyhistidine mAb.
Assay [2] addresses CD4 on CD4+ T cells (human) (UniProt P01730). Nature of the assay: cell-based or functional assay.
Assay [3] concerns the target FcγRIIIaECD176VHis (HEK-293F, prepared as in Example 4) (human) (UniProt P08637). Nature of the assay: AlphaScreen bridging assay: His-tagged FcγRIIIa176V on Ni-acceptor beads and sCD4-biotine on SA-donor beads; signal needs binding to both. A general note: Bead proximity is the source of the signal in Alpha formats.
For assay [4], the target named is sCD4 (UniProt P01730). Nature of the assay: ELISA, plate-bound sCD4 2.0 µg/ml; relative potency from EC50. For orientation: In an ELISA, binding on a coated surface is turned into a signal by an enzyme label.
For assay [5], the target named is Fc receptor on NK cells (effector cells of the ADCC assay) (human) (UniProt P08637). Nature of the assay: cell-based or functional assay.
Fc receptor on NK cells (effector cells of the ADCC assay) (human), sequence (P08637 17-254): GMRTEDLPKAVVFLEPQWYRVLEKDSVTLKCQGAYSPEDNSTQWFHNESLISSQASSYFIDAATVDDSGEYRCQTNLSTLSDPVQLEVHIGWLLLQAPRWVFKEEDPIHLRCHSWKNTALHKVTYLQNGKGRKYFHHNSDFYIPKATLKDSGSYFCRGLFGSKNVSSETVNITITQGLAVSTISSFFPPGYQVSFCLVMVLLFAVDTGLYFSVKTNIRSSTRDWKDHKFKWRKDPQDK
Assay [6] addresses FcγRIIIaECD176VHis (HEK-293F, prepared as in Example 4) (human) (UniProt P08637). Nature of the assay: ELISA, plate-bound FcγRIIIa176V; relative potency from EC50.

FcγRIIIaECD176VHis (HEK-293F, prepared as in Example 4) (human), sequence (P08637 other isoform, or with tags, fused parts or gaps limits assumed): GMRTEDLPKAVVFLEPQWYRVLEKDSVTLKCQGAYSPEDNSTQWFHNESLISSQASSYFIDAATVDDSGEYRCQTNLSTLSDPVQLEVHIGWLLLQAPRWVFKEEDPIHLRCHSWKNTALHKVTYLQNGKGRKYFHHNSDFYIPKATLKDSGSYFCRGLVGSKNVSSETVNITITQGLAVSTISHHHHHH
FcγRIIIaECD176VHis batch 646-005-EP (CHO-K1SV derived) (human), sequence (P08637 other isoform, or with tags, fused parts or gaps limits assumed): as above

For HuMax-EGFr (antibody), the EC50 ratio of the two HuMax-EGFr batches in assay [1] worked out at 2.
Consider “zanolimumab (batch not stated) (antibody)”, for which the reduction of the level of CD4 expression after 18-24 h (flow cytometry with non-competing anti-CD4) in assay [2] fell in the range of 50 to 80%.
zanolimumab batch BN078 (antibody) displayed a binding capacity (% of the reference batch) (% of reference batch MRS-CD4-001) in assay [3] of 89.
In turn, zanolimumab batch BO118 (antibody) gave a binding capacity (% of the reference batch) (% of reference batch MRS-CD4-001) in assay [3] of 88.
In assay [4], zanolimumab batch GMP#3 (antibody) gave a relative potency (sCD4 binding), Exp 1 (relative to MRS-CD4-001) of 0.91; a relative potency (sCD4 binding), Exp 2 (relative to MRS-CD4-001) of 0.92; a relative potency (sCD4 binding), mean (relative to MRS-CD4-001) of 0.92. In assay [5], this substance registered a Relative potency (ADCC), Exp 1 (relative to MRS-CD4-001) of 0.98; a Relative potency (ADCC), Exp 2 (relative to MRS-CD4-001) of 1.3; a Relative potency (ADCC), Exp (third) (relative to MRS-CD4-001) of 1.45; a Relative potency (ADCC), mean (relative to MRS-CD4-001) of 1.24. This substance displayed a Relative potency (ADCC), relative to batch GMP#3 (relative to GMP#3) in assay [5] of 1. In assay [6], the relative potency (FcγRIIIa176V binding), Exp 1 (relative to MRS-CD4-001) came out at 1.12; the relative potency (FcγRIIIa176V binding), Exp 2 (relative to MRS-CD4-001) was found to be 1.12; the relative potency (FcγRIIIa176V binding), mean (relative to MRS-CD4-001) amounted to 1.12; the relative potency (FcγRIIIa176V binding), related to parent batch GMP#3 (relative to GMP#3) was determined as 1.
zanolimumab batch MEV005 (antibody) displayed a binding capacity (% of the reference batch) (% of reference batch MRS-CD4-001) in assay [3] of 84.
In assay [4], “zanolimumab batch MOCK-GMP#3-CD4 (sham-de-glycosylated) (antibody)” had a relative potency (sCD4 binding), Exp 1 (relative to MRS-CD4-001) of 0.98; a relative potency (sCD4 binding), Exp 2 (relative to MRS-CD4-001) of 0.85; a relative potency (sCD4 binding), mean (relative to MRS-CD4-001) of 0.92. Moreover, in assay [5], the Relative potency (ADCC), Exp 1 (relative to MRS-CD4-001) amounted to 1.38; the Relative potency (ADCC), Exp 2 (relative to MRS-CD4-001) worked out at 1.55; the Relative potency (ADCC), Exp (third) (relative to MRS-CD4-001) is 1.42; the Relative potency (ADCC), mean (relative to MRS-CD4-001) was determined as 1.45. The Relative potency (ADCC), relative to batch GMP#3 (relative to GMP#3) in assay [5] turned out to be 1.17. In assay [6], the relative potency (FcγRIIIa176V binding), Exp 1 (relative to MRS-CD4-001) was found to be 1.23; the relative potency (FcγRIIIa176V binding), Exp 2 (relative to MRS-CD4-001) is 1.23; the relative potency (FcγRIIIa176V binding), mean (relative to MRS-CD4-001) amounted to 1.23; the relative potency (FcγRIIIa176V binding), related to parent batch GMP#3 (relative to GMP#3) stood at 1.09.
“zanolimumab batch MOCK-MRS-CD4 (sham-deglycosylated) (antibody)” came in with a binding capacity (% of the reference batch) (% of reference batch MRS-CD4-001) in assay [3] of 81.
As for “zanolimumab batch MRS-CD4-001 (antibody)”, in assay [4], the relative potency (sCD4 binding), Exp 1 (relative to MRS-CD4-001) is 1; the relative potency (sCD4 binding), Exp 2 (relative to MRS-CD4-001) worked out at 1; the relative potency (sCD4 binding), mean (relative to MRS-CD4-001) turned out to be 1. Moreover, in assay [5], the Relative potency (ADCC), Exp 1 (relative to MRS-CD4-001) is 1; the Relative potency (ADCC), Exp 2 (relative to MRS-CD4-001) amounted to 1; the Relative potency (ADCC), Exp (third) (relative to MRS-CD4-001) was determined as 1; the Relative potency (ADCC), mean (relative to MRS-CD4-001) is 1. Further, in assay [6], the relative potency (FcγRIIIa176V binding), Exp 1 (relative to MRS-CD4-001) was 1; the relative potency (FcγRIIIa176V binding), Exp 2 (relative to MRS-CD4-001) was 1; the relative potency (FcγRIIIa176V binding), mean (relative to MRS-CD4-001) stood at 1.
For the substance “zanolimumab batch UNG-GMP#3-CD4 (de-glycosylated) (antibody)”, in assay [4], the relative potency (sCD4 binding), Exp 1 (relative to MRS-CD4-001) is 0.96; the relative potency (sCD4 binding), Exp 2 (relative to MRS-CD4-001) was determined as 1.01; the relative potency (sCD4 binding), mean (relative to MRS-CD4-001) was found to be 0.99.
In assay [4], “zanolimumab mixed batch M50-GMP#3-CD4 (antibody)” had a relative potency (sCD4 binding), Exp 1 (relative to MRS-CD4-001) of 1.03; a relative potency (sCD4 binding), Exp 2 (relative to MRS-CD4-001) of 0.9; a relative potency (sCD4 binding), mean (relative to MRS-CD4-001) of 0.97. In assay [5], the Relative potency (ADCC), Exp 1 (relative to MRS-CD4-001) came to 0.14; the Relative potency (ADCC), Exp 2 (relative to MRS-CD4-001) was 0.64; the Relative potency (ADCC), Exp (third) (relative to MRS-CD4-001) stood at 0.39; the Relative potency (ADCC), mean (relative to MRS-CD4-001) stood at 0.39. The Relative potency (ADCC), relative to batch GMP#3 (relative to GMP#3) in assay [5] came to 0.31. Also, in assay [6], the relative potency (FcγRIIIa176V binding), Exp 1 (relative to MRS-CD4-001) worked out at 0.5; the relative potency (FcγRIIIa176V binding), Exp 2 (relative to MRS-CD4-001) turned out to be 0.6; the relative potency (FcγRIIIa176V binding), mean (relative to MRS-CD4-001) is 0.55; the relative potency (FcγRIIIa176V binding), related to parent batch GMP#3 (relative to GMP#3) was found to be 0.49.
The substance “zanolimumab mixed batch M50-MRS-CD4 (antibody)” yielded a binding capacity (% of the reference batch) (% of reference batch MRS-CD4-001) in assay [3] of 53.
In turn, “zanolimumab mixed batch M90-MRS-CD4 (antibody)” yielded a binding capacity (% of the reference batch) (% of reference batch MRS-CD4-001) in assay [3] of 75. This substance also had a relative potency (relative to MRS-CD4-001) in assay [6] of 0.7.
